Experimental data reported in article PMC5352868, “Physicochemical and Biological Characterization of the Proposed Biosimilar Tocilizumab” (BioMed Research International, 2017).

Tests used:
[1] = target: T1, soluble interleukin-6 receptor (sIL-6R) (Homo sapiens, UniProt P08887); assay: cell-based or functional assay
[2] = target: T1, soluble interleukin-6 receptor (sIL-6R); assay: SPR; Biacore X100 plus; anti-Fc antibody immobilised on CM5 chip (~2500 RU) captures the antibody sample (1.0 ug/mL, 10 uL/min, 60 s); IL-6R injected 150 to 4.7 ng/mL, 30 uL/min, 180 s, dissociation 500 s, HBS-EP+ buffer; minimum and maximum of four batches; conditions: both partners purified

T1 sequence (P08887 20-365): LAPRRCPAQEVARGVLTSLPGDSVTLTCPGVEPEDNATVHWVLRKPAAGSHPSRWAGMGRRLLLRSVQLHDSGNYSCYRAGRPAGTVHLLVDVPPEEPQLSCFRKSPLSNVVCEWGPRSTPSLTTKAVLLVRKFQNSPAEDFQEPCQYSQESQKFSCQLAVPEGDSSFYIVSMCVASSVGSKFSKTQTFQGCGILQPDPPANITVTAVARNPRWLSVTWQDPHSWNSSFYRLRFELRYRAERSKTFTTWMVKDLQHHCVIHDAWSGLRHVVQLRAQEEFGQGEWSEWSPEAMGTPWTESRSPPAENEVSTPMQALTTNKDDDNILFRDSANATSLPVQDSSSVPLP

B1: HS628 (proposed biosimilar tocilizumab) (antibody, V domains shown)
VH: EVQLQESGPGLVRPSQTLSLTCTVSGYSITSDHAWSWVRQPPGRGLEWIGYISYSGITTYNPSLKSRVTMLRDTSKNQFSLRLSSVTAADTAVYYCARSLARTTAMDYWGQGSLVTVSS
VL: DIQMTQSPSSLSASVGDRVTITCRASQDISSYLNWYQQKPGKAPKLLTYYTSRLHSGVPSRFSGSGSGTDFTFTISSLQPEDIATYYCQQGNTLPYTFGQGTKVEIK
notes: found identical to the heavy chain of m1; found identical to the light chain of m1; IgG1; Four batches tested (20130901-20130904); source: Zhejiang Hisun Pharmaceutical; copies: 2 + 2
Q: Which results are given for B1?
A: DS-1 cell growth inhibition (CCK-8, 72 hrs, antibody 800 ug/mL to 12.21 ng/mL), relative potency (EC50) towards originator tocilizumab, batch 1 of 4; blocks IL-6 with IL-6R on the cells [1]: 98 % relative potency; DS-1 cell growth inhibition (CCK-8, 72 hrs, antibody 800 ug/mL to 12.21 ng/mL), relative potency (EC50) towards originator tocilizumab, batch 2 of 4; blocks IL-6 with IL-6R on the cells [1]: 102 % relative potency; DS-1 cell growth inhibition (CCK-8, 72 hrs, antibody 800 ug/mL to 12.21 ng/mL), relative potency (EC50) towards originator tocilizumab, batch 3 of 4; blocks IL-6 with IL-6R on the cells [1]: 94 % relative potency; DS-1 cell growth inhibition (CCK-8, 72 hrs, antibody 800 ug/mL to 12.21 ng/mL), relative potency (EC50) towards originator tocilizumab, batch 4 of 4; blocks IL-6 with IL-6R on the cells [1]: 105 % relative potency; Kd [2]: 0.92 to 1.17 nM

B2: Originator tocilizumab (Actemra) (antibody, V domains shown)
VH: EVQLQESGPGLVRPSQTLSLTCTVSGYSITSDHAWSWVRQPPGRGLEWIGYISYSGITTYNPSLKSRVTMLRDTSKNQFSLRLSSVTAADTAVYYCARSLARTTAMDYWGQGSLVTVSS
VL: DIQMTQSPSSLSASVGDRVTITCRASQDISSYLNWYQQKPGKAPKLLTYYTSRLHSGVPSRFSGSGSGTDFTFTISSLQPEDIATYYCQQGNTLPYTFGQGTKVEIK
notes: Recombinant humanized IgG1; also called originator product; source: bought: Roche Pharma (Schweiz) Ltd. (manufactured by Chugai Pharma Manufacturing Co., Ltd.); copies: 2 + 2
Q: With B2 as the binder, how does the Kd [2] read?
A: 1.08 to 1.78 nM
